# Experimental data as given in article PMC6615493, “The Role of Iron and Copper on the Oligomerization Dynamics of DR_2577, the Main S-Layer Protein of Deinococcus radiodurans” (Frontiers in Microbiology, 2019).
# “And” between values parts separate entries of the source, which are not always exact repeats. Equal values may be shown once.
# B1: DR_2577, the main S-layer protein of Deinococcus radiodurans (natural protein, UniProt Q9RRB6 23-1167, looked up)
# chain: APVSAPQVPALTDVPAGHWAKDAIDRLVSRGVILGYPDGTFRGTQNLTRYEAAIIIARLLDQMRDGETPAGMTAEDMTALQNAIQELAADLAALGVRVSDLEANAVSKDDFARLEARIEEVAAAGGEQGATEALQGQIDDLTARVDEYDALRADVDDNASSIAALNDLTVLLNQDILDLQDRVSAVEAAQADFVQRSDFDALGGRVTTVETRVETVNNSLTGRIAALERNAFSVKPSLTIGYSVSRTSRNFDVDRLFPLNADGTVANNAFTSGGIDTDTGAQRRDFGDFGNASDPVVAGAAGLYGFADGVSYTVYFTDGSTATFDGLNPADYKVPTGKVIDTTKGRNGFGFNNLARYKEGSTDIGISLGFDTSGQFSQVTSGTGGSLFSTAGRLQVNQIDLNFGLVTGLPSDAYVDTNGNGKKDDGEATGRGTYLGSGGTAAILRDPAGNVYRPVFFRFKNATTQFSVGNNPVIVTLGQQQKFYFSDYVFDNNYDGRGDGFTVTVDGSNVPVIGAWKPQIKGVYGSRSGLDGTAEAGYGVYYRGVRAQITPVGTLTAGIHYAQEGRDMFGAAQNTTSTPSDVTTYGADLHGKAFGVELHSEYATSRVRPNTANAAVQTSNAFYARVATRKDNLAFDLNTPAAKFGNDTFGVSLYDLNYRKIDAGYNNVAGISEYGYGSYSRTSAQNIAYNPDTGVTAPFANLDRQAYTDANNDGTSDRNADGTVVATNTKIGQMGFGVKAAANLGPVAIGGYYDTSTGANGDNANRMTEAGGSAKVAYSIFSLRGTYNTLDSNRPQIYRDAAGTQIIGDAKVRRYAVQADVTPGLGLFVGAYYRDVNVNGVRSTTDRGLLGRGYLASSFEPGVGNNAYRTGLRCADNNFGTGTRDIDGVGGVLNPAVNLDQSRTATCFTSYGVEAGHAGDNANALVKDLFFRVGYSRVYVPTTATATTGDFSGSVTYGDARYDRKVGVANVRLAGSFSTTNTQLDSRPAGTRGAVGLIVRTDPLENVPFRPQFNGQVGYYTADNRVAAGNYNANATKYGAGVVLNDFLLPQTKIGVRYDGYMAQNRQYTPFDGDGTQGYFSDANNNRRTNLNGVYVEGAYQDLIFSYGTYTLSQKDLNGVEYGSGINNGQPARGQTFKISYKVNF
# notes: DR_2577 (SlpA), main S-layer protein of Deinococcus radiodurans strain R1; The introduction describes it as a homo-hexamer of ~760 kDa (trimer of dimers); the dimers are said (cited work) to be held by intermolecular disulfide bonds; also called SlpA
# Biological target: the molecule itself
# Experiment: SEC; Superose 6 10/300GL, 50 µl protein at 0.2 mg/ml, 0.05% β-DDM; 50 mM phosphate (pH >= 7) or 50 mM Na acetate (pH <= 6); control runs, runs with EDTA, at lower pH and with Cu2+; close-to-native conditions
protein,measurement,value
B1,stoichiometry N,6 and 2
